US20170128490A1

Biological target: RGD-recognizing receptors (on monocytes)
Experiment: cell-based or functional assay

RGDS [small RGD peptides, containing the amino-acid sequence Arg-Gly-Asp-Ser] gave a long-duration monocyte-platelet interactions (video analysis, flow) of 44 % decrease.
